Residue numbers refer to the chain shown, from its start. In names and notes the source's numbering stands.

The source of these data is patent US20260116937A1 (published 2026).

In assay [1] the target is T1, human C3b (human, UniProt P01024 749-1663; P01024 23-667). The experiment in a line: ELISA. A general note: In an ELISA, binding on a coated surface is turned into a signal by an enzyme label.
Assay [2] concerns the target T1, human C3b. The experiment in a line: ELISA; culture supernatant.
Assay [3] deals with T1, human C3b. The experiment in a line: ELISA. This is another data set of the same source.

T1 sequence (P01024 749-1663, chain 1 of 2): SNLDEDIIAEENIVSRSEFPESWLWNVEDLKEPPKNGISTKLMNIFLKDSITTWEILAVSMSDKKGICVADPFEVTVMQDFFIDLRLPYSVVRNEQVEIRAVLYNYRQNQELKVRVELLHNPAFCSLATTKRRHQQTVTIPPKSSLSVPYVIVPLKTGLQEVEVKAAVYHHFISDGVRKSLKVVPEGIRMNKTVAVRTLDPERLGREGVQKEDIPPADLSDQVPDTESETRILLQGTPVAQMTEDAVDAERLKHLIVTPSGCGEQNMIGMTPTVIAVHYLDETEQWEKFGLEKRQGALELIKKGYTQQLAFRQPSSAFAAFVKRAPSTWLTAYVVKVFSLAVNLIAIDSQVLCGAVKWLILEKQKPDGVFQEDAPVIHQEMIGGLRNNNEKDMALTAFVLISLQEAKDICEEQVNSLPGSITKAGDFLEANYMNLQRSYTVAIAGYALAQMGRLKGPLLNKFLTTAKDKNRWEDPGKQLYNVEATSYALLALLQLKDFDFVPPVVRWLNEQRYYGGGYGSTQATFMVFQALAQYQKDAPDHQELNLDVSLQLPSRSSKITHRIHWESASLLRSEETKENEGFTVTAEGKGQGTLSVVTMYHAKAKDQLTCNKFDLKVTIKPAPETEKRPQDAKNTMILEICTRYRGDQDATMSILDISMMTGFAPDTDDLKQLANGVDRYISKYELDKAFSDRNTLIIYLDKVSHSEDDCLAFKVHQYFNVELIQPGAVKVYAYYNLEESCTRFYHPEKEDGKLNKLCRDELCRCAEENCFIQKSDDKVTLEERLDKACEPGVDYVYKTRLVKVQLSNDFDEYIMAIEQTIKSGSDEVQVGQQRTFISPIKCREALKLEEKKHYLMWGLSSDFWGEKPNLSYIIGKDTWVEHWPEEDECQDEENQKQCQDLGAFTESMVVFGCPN
T1 sequence (P01024 23-667, chain 2 of 2): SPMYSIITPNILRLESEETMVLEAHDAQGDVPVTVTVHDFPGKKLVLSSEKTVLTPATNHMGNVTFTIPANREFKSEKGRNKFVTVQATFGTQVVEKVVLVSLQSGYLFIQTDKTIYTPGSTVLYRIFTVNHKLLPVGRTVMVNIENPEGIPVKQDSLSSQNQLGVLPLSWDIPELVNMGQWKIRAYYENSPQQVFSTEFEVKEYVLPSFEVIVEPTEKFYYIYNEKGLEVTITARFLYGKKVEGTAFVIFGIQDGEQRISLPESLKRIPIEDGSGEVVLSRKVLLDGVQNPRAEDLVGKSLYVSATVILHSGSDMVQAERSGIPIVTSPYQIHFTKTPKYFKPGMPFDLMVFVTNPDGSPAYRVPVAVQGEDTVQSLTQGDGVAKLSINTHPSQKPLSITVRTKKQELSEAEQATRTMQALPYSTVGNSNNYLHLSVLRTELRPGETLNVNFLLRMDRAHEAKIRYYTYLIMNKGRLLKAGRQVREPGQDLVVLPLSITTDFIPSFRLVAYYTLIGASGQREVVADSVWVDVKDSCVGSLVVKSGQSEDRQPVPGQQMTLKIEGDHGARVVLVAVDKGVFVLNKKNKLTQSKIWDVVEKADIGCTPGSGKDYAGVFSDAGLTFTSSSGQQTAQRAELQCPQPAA

B1: Factor H-like protein 1 (FHL-1) (other)
chain: EDCNELPPRRNTEILTGSWSDQTYPEGTQAIYKCRPGYRSLGNVIMVCRKGEWVALNPLRKCQKRPCGHPGDTPFGTFTLTGGNVFEYGVKAVYTCNEGYQLLGEINYRECDTDGWTNDIPICEVVKCLPVTAPENGKIVSSAMEPDREYHFGQAVRFVCNSGYKIEGDEEMHCSDDGFWSKEKPKCVEISCKSPDVINGSPISQKIIYKENERFQYKCNMGYEYSERGDAVCTESGWRPLPSCEEKSCDNPYIPNGDYSPLRIKHRTGDEITYQCRNGFYPATRGNTAKCTSTGWIPAPRCTLKPCDYPDIKHGGLYHENMRRPYFPVAVGKYYSYYCDEHFETPSGSYWDHIHCTQDGWSPAVPCLRKCYFPYLENGYNQNYGRKFVQGKSIDVACHPGYALPKAQTTVTCMENGWSPTPRCIRVSFTL
A word on the EC50: it is the midpoint of the concentration-response curve. A high value points to a need for much substance. Take B1: a half-maximal effect in assay [1] (EC50) was put at 7.4 nM.

B2: Var108 (glycoengineered variant of FHL-1, G442N in the Var004 framework) (designed binder)
chain: EDCNELPPRRNTEILTGSWSDQTYPEGTQAIYKCRPGYRSLGNVIMVCRKGEWVALNPLRKCQKRPCGHPGDTPFGTFTLTGGNVFEYGVKAVYTCNEGYQLLGEINYRECDTDGWTNDIPICEVVKCLPVTAPENGKIVSSAMEPDREYHFGQAVRFVCNSGYKIEGDEEMHCSDDGFWSKEKPKCVEISCKSPDVINGSPISQKIIYKENERFQYKCNMGYEYSERGDAVCTESGWRPLPSCEEKSCDNPYIPNGDYSPLRIKHRTGDEITYQCRNGFYPATRGNTAKCTSTGWIPAPRCTLKPCDYPDIKHGGLYHENMRRPYFPVAVGKYYSYYCDEHFETPSGSYWDHIHCTQDGWSPAVPCLRKCYFPYLENGYNQNYGRKFVQGKSIDVACHPGYALPKAQTTVTCMENGWSPTPRCIRVSGGGGSGGGGSGGGNSTLKPCDYPDIKHGGLYHENMRRPYFPVAVGKYYSYYCDEHFETPSGSYWDHIHCTQDGWSPAVPCLRKCYFPYLENGYNQNYGRKFVQGKSIDVACHPGYALPKAQTTVTCMENGWSPTPRCIRVSFTL
modifications: N-linked glycosylation at the engineered NxS/T motif (G442N), >90% glycosylated monomer
For B2, in assay [1], a half-maximal response (EC50) required 0.4 nM.

B3: Var004 (engineered variant of FHL-1) (designed binder)
chain: B2 chain with N442G
Molecule B3 gave an EC50 in assay [2] of 2.5 nM.

B4: complement factor H (CFH) (other)
chain: EDCNELPPRRNTEILTGSWSDQTYPEGTQAIYKCRPGYRSLGNVIMVCRKGEWVALNPLRKCQKRPCGHPGDTPFGTFTLTGGNVFEYGVKAVYTCNEGYQLLGEINYRECDTDGWTNDIPICEVVKCLPVTAPENGKIVSSAMEPDREYHFGQAVRFVCNSGYKIEGDEEMHCSDDGFWSKEKPKCVEISCKSPDVINGSPISQKIIYKENERFQYKCNMGYEYSERGDAVCTESGWRPLPSCEEKSCDNPYIPNGDYSPLRIKHRTGDEITYQCRNGFYPATRGNTAKCTSTGWIPAPRCTLKPCDYPDIKHGGLYHENMRRPYFPVAVGKYYSYYCDEHFETPSGSYWDHIHCTQDGWSPAVPCLRKCYFPYLENGYNQNYGRKFVQGKSIDVACHPGYALPKAQTTVTCMENGWSPTPRCIRVKTCSKSSIDIENGFISESQYTYALKEKAKYQCKLGYVTADGETSGSITCGKDGWSAQPTCIKSCDIPVFMNARTKNDFTWFKLNDTLDYECHDGYESNTGSTTGSIVCGYNGWSDLPICYERECELPKIDVHLVPDRKKDQYKVGEVLKFSCKPGFTIVGPNSVQCYHFGLSPDLPICKEQVQSCGPPPELLNGNVKEKTKEEYGHSEVVEYYCNPRFLMKGPNKIQCVDGEWTTLPVCIVEESTCGDIPELEHGWAQLSSPPYYYGDSVEFNCSESFTMIGHRSITCIHGVWTQLPQCVAIDKLKKCKSSNLIILEEHLKNKKEFDHNSNIRYRCRGKEGWIHTVCINGRWDPEVNCSMAQIQLCPPPPQIPNSHNMTTTLNYRDGEKVSVLCQENYLIQEGEEITCKDGRWQSIPLCVEKIPCSQPPQIEHGTINSSRSSQESYAHGTKLSYTCEGGFRISEENETTCYMGKWSSPPQCEGLPCKSPPEISHGVVAHMSDSYQYGEEVTYKCFEGFGIDGPAIAKCLGEKWSHPPSCIKTDCLSLPSFENAIPMGEKKDVYKAGEQVTYTCATYYKMDGASNVTCINSRWTGRPTCRDTSCVNPPTVQNAYIVSRQMSKYPSGERVRYQCRSPYEMFGDEEVMCLNGNWTEPPQCKDSTGKCGPPPPIDNGDITSFPLSVYAPASSVEYQCQNLYQLEGNKRITCRNGQWSEPPKCLHPCVISREIMENYNIALRWTAKQKLYSRTGESVEFVCKRGYRLSSRSHTLRTTCWDGKLEYPTCAKR
For the molecule B4, the EC50 was determined as 4.5 nM in assay [1] and 1.2 nM in assay [3].
